This test concerns the target T1, tryptophan 2-C-methyltransferase (TsrM) from Streptomyces laurentii (Streptomyces laurentii, UniProt C0JRZ9 1-599).
T1 sequence (looked up): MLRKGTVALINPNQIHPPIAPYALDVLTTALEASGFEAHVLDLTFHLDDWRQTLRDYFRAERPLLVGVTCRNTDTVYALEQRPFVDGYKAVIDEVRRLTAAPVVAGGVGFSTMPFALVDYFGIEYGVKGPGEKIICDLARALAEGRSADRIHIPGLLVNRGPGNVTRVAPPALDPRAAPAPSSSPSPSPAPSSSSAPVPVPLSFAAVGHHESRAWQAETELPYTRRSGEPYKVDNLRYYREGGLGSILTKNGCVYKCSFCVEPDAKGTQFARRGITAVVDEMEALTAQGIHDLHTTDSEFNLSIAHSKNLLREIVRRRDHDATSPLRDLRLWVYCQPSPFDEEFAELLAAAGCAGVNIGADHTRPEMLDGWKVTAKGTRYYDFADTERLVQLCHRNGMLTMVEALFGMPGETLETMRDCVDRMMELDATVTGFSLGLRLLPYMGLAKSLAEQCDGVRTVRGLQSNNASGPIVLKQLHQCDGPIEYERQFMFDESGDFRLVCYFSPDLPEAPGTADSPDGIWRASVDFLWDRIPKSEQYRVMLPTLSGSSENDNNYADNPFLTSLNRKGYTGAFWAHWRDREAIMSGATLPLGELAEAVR
Nature of the test: BLI.

Usually Kd stands for a measure of binding affinity in units of concentration.

B1: Streptomyces cattleya [4Fe-4S] ferredoxin Fdx1 (natural protein, UniProt F8K3M7 1-106, looked up)
chain: MTYVIAQPCVDVKDKACIEECPVDCIYEGQRSLYIHPDECVDCGACEPVCPVEAIFYEDDTPEEWKDYYKANVEFFDELGSPGGASKLGLIERDHPFIAALPPQNG
modifications: biotinylated through incubation with 1 equivalent of NHS-PEG4-Biotin
In turn, B1 registered a Kd of 40 µM.

The values are drawn from paper doi:10.1101/2021.02.02.429153 (bioRxiv, 2021).
